According to US20260184748A1 (University of Pennsylvania, published 2026):
Where no end group is shown, it is not given here.

What was measured:
Assay in all cases: cell-based or functional assay
[1] = biological target: T1, NMU1R (UniProt Q9HB89 1-426, limits assumed)
T1 sequence (looked up): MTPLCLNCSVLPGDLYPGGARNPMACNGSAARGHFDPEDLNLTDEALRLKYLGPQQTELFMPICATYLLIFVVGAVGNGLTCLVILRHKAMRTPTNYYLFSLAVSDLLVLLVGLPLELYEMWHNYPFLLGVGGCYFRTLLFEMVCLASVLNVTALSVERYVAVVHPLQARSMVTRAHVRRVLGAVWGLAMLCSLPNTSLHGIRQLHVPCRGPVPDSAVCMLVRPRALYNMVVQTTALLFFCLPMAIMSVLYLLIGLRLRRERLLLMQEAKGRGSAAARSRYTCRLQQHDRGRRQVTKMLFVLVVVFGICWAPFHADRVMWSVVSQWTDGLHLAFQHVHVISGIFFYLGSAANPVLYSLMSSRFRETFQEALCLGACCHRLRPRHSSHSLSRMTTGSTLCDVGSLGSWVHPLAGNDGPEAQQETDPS

[2] = biological target: MRGPRX1 (UniProt Q96LB2 1-322)
Chain of MRGPRX1 (Q96LB2 whole entry): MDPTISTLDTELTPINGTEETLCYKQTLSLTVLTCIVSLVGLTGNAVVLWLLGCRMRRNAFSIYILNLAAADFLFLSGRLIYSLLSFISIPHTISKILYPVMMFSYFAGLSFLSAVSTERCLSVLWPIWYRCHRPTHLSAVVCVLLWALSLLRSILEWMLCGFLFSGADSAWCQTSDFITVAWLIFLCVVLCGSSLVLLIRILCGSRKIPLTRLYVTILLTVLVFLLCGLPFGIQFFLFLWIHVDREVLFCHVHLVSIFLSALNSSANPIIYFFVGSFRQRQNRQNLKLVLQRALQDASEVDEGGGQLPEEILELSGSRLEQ

[3] = biological target: MC5R (UniProt P33032 1-325)
Chain of MC5R (P33032 whole entry): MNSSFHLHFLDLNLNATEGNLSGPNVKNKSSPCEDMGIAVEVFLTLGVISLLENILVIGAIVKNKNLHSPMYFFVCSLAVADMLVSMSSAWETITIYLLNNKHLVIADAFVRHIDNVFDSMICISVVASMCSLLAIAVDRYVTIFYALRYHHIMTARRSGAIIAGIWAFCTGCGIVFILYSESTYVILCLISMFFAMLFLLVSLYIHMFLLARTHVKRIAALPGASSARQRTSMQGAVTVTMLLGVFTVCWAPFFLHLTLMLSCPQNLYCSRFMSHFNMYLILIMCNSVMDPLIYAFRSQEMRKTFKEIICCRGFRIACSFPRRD

[4] = biological target: T2, GALR2 (UniProt O43603 1-387)
T2 sequence (looked up): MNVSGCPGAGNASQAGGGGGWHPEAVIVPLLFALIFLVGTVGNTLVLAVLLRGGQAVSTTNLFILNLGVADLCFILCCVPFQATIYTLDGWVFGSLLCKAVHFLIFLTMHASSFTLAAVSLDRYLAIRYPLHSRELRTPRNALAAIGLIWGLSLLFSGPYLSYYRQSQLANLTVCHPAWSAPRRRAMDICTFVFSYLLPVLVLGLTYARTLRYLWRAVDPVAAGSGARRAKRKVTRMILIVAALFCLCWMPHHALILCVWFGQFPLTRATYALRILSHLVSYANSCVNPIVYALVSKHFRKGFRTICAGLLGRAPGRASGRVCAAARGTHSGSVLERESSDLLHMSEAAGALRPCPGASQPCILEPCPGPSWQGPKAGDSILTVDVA

[5] = biological target: T3, CCR2 (UniProt P41597-2 1-360, limits assumed)
T3 sequence (looked up): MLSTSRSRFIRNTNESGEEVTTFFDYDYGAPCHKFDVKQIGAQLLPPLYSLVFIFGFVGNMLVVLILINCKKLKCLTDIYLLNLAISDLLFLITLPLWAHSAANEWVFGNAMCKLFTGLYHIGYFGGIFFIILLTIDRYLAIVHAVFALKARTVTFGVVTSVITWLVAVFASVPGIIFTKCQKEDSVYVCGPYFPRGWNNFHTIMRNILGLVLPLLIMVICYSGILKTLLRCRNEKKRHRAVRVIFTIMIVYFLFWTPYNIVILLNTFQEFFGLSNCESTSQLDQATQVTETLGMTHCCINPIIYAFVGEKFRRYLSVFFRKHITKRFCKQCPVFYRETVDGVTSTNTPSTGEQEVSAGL

[6] = biological target: SSTR3 (UniProt P32745 1-418)
Chain of SSTR3 (P32745 whole entry): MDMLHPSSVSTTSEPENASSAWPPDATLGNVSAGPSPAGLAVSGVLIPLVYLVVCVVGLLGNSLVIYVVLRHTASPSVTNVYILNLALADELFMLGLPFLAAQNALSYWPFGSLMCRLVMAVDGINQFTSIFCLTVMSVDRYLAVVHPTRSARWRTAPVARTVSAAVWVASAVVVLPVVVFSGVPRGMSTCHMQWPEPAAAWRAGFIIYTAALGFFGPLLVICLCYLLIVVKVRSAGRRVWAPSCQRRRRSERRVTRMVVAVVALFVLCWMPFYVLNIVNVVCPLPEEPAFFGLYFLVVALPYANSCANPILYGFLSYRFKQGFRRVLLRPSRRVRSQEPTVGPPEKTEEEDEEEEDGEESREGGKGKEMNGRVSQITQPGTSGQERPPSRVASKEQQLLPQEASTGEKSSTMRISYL

[7] = biological target: T4, ADRA2B (UniProt P18089 1-450)
T4 sequence (looked up): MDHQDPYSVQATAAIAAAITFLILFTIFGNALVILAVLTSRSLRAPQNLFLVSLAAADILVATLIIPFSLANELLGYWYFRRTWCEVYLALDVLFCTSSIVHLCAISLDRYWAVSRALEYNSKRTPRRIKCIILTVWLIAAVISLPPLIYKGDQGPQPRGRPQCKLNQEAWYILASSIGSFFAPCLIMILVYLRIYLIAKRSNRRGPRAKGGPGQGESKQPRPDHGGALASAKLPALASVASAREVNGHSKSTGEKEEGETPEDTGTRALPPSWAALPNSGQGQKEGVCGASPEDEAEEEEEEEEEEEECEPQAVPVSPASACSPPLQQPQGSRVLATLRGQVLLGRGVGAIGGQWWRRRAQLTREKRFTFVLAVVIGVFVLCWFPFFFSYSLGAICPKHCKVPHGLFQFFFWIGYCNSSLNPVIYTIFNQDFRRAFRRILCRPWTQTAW

[8] = biological target: P2RY12 (UniProt Q9H244 1-342)
Chain of P2RY12 (Q9H244 whole entry, one chain of several): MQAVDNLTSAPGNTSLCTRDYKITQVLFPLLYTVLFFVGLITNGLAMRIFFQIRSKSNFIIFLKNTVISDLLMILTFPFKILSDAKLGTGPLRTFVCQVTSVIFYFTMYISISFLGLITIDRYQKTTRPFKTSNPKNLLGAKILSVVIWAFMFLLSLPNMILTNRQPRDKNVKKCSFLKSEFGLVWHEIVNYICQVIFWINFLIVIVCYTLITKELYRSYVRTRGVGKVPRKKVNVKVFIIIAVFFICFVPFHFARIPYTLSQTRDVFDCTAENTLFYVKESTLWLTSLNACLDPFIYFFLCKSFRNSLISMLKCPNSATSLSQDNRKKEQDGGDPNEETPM

[9] = biological target: T5, CXCR1 (UniProt P25024 1-350)
T5 sequence (looked up): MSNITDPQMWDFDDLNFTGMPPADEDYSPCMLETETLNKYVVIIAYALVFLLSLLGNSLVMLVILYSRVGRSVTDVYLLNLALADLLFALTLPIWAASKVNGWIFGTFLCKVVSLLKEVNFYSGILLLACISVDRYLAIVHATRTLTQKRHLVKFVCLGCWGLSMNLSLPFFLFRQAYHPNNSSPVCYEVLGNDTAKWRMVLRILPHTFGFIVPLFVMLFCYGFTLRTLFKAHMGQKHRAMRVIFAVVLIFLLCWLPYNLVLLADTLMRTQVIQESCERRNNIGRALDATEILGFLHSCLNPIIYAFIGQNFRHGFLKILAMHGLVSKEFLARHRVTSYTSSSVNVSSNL

[10] = biological target: T6, CHRM1 (UniProt P11229 1-460)
T6 sequence (looked up): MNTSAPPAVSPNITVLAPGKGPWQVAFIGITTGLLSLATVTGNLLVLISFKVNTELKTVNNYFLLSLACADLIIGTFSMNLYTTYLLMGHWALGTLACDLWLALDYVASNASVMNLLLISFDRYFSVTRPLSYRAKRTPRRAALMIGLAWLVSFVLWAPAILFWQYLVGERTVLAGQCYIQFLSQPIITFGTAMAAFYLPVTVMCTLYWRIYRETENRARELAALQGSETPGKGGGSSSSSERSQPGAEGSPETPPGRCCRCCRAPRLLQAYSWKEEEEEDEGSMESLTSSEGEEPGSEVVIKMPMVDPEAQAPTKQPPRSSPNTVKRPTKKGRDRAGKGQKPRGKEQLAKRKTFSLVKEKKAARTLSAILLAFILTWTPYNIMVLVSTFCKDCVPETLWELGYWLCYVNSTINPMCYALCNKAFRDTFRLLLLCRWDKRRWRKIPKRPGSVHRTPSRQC

For QATVGDVNTDRPGLLDLK (also: synthesised on Rink amide resin, C-terminal amide not given here outright) [octadecaneuropeptide (ODN)], which “% Activity, arrestin, antagonist mode, 2.5 uM” value (“% Activity, arrestin” for short) [1] is on record?
The value was -34.2%.

And the “% Activity, arrestin” value [2]?
Its value is 3.8%.

What about the “% Activity, arrestin” value [3] of the same binder?
The value was 5.9%.

What about the “% Activity, arrestin” value [4] of the same binder?
Its value is -29.7%.

And the “% Activity, arrestin” value [5]?
The value was -15.4%.

And the “% Activity, arrestin” value [6]?
Its value is 4.2%.

What about the “% Activity, arrestin” value [7] of the same binder?
The value was -36.8%.

And the “% Activity, arrestin” value [8]?
Its value is -11%.

What about the “% Activity, arrestin” value [9] of the same binder?
The value was 10.2%.

And the “% Activity, arrestin” value [10]?
Its value is 9.3%.
